Experimental data taken from patent US20150111246A1, “SITE-SPECIFIC ENZYMATIC MODIFICATION OF EXENDINS AND ANALOGS THEREOF” (priority 2012, published 2015).
Bridge positions count the residues as written; N and C are the ends. Peptide text beside a SMILES is read from it. * marks the point of attachment. NH(mPEG24) = COCCOCCOCCOCCOCCOCCOCCOCCOCCOCCOCCOCCOCCOCCOCCOCCOCCOCCOCCOCCOCCOCCOCCOCCN*

Experiments:
GLP-1 receptor [1] = molecular target: T1, GLP-1 receptor (Rattus norvegicus, UniProt P32301); assay: GLP-1 receptor binding displacement assay; details: text of Examples 6, 7, 12
T1 construct: endogenous in cells; host or cells: RINm5F cell membranes
T1 sequence (P32301 22-463): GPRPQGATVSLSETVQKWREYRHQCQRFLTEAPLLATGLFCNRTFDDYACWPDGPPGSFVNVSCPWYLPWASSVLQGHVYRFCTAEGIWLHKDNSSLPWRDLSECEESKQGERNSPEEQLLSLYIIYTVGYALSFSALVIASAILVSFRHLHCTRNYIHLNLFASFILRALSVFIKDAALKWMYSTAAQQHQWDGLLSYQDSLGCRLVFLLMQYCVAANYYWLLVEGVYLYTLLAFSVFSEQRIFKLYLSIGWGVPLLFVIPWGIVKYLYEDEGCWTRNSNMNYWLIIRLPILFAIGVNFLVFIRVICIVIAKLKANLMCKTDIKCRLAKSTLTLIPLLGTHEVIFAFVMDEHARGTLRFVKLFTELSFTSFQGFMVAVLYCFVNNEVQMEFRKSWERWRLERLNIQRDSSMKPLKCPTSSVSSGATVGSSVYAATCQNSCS
Description: GLP-1 receptor binding and functional assays: GLP-1 receptor binding activity and affinity may be measured in any number of known methods. […] Reaction mixtures are filtered through glass filter pads presoaked with 0.3% PEI solution and rinsed with ice-cold phosphate buffered saline. Bound counts are determined using a scintillation counter. Binding affinities can be calculated using GraphPad Prism® software (GraphPad Software, Inc., San Diego, Calif.).

GLP-1 receptor [2] = molecular target: GLP-1 receptor (UniProt P32301); assay: cell-based or functional assay
GLP-1 receptor [3] = molecular target: GLP-1 receptor (UniProt P32301); assay: radioligand displacement, RINm5F cell membranes, [125I]GLP-1 (or exendin) tracer
GLP-1 receptor, P32301 = molecular target: T2, GLP-1 receptor, P32301; assay: GLP-1 binding assay (radioligand displacement), as the filing names it
T2 chain: T1 sequence (P32301 22-463)

GLP-1 receptor [4] = molecular target: T3, GLP-1 receptor (UniProt P32301 22-463, limits assumed); assay: cell-based or functional assay
T3 sequence (looked up): T1 sequence (P32301 22-463)

## CC[C@H](C)[C@H](NC(=O)[C@@H]1CCCN1C(=O)CNC(=O)[C@H](Cc1ccccc1)NC(=O)[C@H](CC(N)=O)NC(=O)[C@H](CC(N)=O)NC(=O)[C@H](CO)NC(=O)[C@H](CO)NC(=O)[C@H](Cc1c[nH]cn1)NC(=O)[C@@H](NC(=O)[C@H](CC(C)C)NC(=O)[C@H](Cc1ccccc1)NC(=O)[C@H](CC(N)=O)NC(=O)[C@H](C)NC(=O)[C@H](CC(C)C)NC(=O)[C@H](CCCNC(=N)N)NC(=O)[C@H](CCC(=O)NCCOCCOCCOCCOCCOCCOCCOCCOCCOCCOCCOCCOCCOCCOCCOCCOCCOCCOCCOCCOCCOCCOCCOCCOC)NC(=O)[C@@H](NC(=O)[C@H](C)NC(=O)[C@@H]1CSSC[C@H](NC(=O)[C@@H](N)CCCCN)C(=O)N[C@@H](CC(N)=O)C(=O)N[C@@H]([C@@H](C)O)C(=O)N[C@@H](C)C(=O)N[C@@H]([C@@H](C)O)C(=O)N1)[C@@H](C)O)C(C)C)C(=O)N[C@@H](CC(C)C)C(=O)N1CCC[C@H]1C(=O)N1CCC[C@H]1C(=O)N[C@H](C(=O)N[C@@H](CC(N)=O)C(=O)N[C@H](C(=O)NCC(=O)N[C@@H](CO)C(=O)N[C@@H](CC(N)=O)C(=O)N[C@H](C(=O)N[C@@H](Cc1ccc(O)cc1)C(N)=O)[C@@H](C)O)C(C)C)[C@@H](C)O [Example 12] (H-KCNTATCATE(NH(mPEG24))RLANFLVHSSNNFGPILPPTNVGSNTY-NH2; disulfide 2-7; N-terminus and C-terminus assumed)
GLP-1 receptor [1]
  IC50: 80 nM

## Exendin-4 (peptide)
GLP-1 receptor [2]
  GLP-1 Function ED50: 0.003 nM
GLP-1 receptor [3]
  IC50: 0.333 nM

B1: Pramlintide pegylated with m-dPEG24 amine at the glutamine at position 10 (peptide)
peptide: KCNTATCATQRLANFLVHSSNNFGPILPPTNVGSNTY
modifications: not checked
GLP-1 receptor, P32301
  IC50: 80 nM

B2: [des-^1H, ^2G(imidazoacetyl), ^13N, ^14L]-Exendin-4-^40Q biotin cadaverine amide adduct attached at ^40Q (MW 4564.46) (peptide)
peptide: GEGTFTSDLSKNLEEEAVRLFIEWLKNGGPSSGAPPPSQ
modifications: imidazoacetyl on Gly 2 in place of His 1; biotin cadaverine amide on the side chain of Gln 40
GLP-1 receptor [4]
  EC50 in the GLP-1 functional assay: 0.004 nM
